Consider one substance from US20160146827A1.

The target in this experiment is GST-tagged PAK1-PBD protein (Cytoskeleton Inc.), Rac/Cdc42 (p21) binding domain of human p21 activated kinase 1, residues 67-150 (human) (UniProt Q13153). The experiment is described as follows: fluorescence anisotropy in solution. (In general: In fluorescence polarisation assays a small probe gives low polarisation when free and higher when bound to something large.)
Sequence of GST-tagged PAK1-PBD protein (Cytoskeleton Inc.), Rac/Cdc42 (p21) binding domain of human p21 activated kinase 1, residues 67-150 (human) (Q13153 67-150 limits assumed): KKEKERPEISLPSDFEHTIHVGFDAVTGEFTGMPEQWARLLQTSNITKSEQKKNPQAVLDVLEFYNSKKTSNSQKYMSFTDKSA

As for “LUMP-Cdc42, fusion protein of LUMP with the constitutively active GTPase Cdc42 (Q61L) connected by a ten amino acid flexible linker (…) (from UniProt Q06877 1-186; P60953 1-191)”, the anisotropy (before addition) was 0.19, the anisotropy (bound) was found to be 0.22 and the increase in anisotropy on binding came to 14%.
